Source: PMC9901791, “Structural insights into catalytical capability for CPT11 hydrolysis and substrate specificity of a novel marine microbial carboxylesterase, E93” (Frontiers in Microbiology, 2023)
Changes are numbered by the printed parent chain. Names and notes keep the numbering of the source.

Legend:
purified protein [1] = substrate: CCc1c2c(nc3ccc(OC(=O)N4CCC(N)CC4)cc13)-c1cc3c(c(=O)n1C2)COC(=O)[C@]3(O)CC; experiment: purified protein; settings: 5-200 uM substrate, 50 mM HEPES pH 7.4, 37 °C, 10 h
purified protein [2] = substrate: CCCC(=O)Oc1ccc([N+](=O)[O-])cc1; experiment: purified protein; type: biochemical, Altericroceibacterium indicum; settings: Tris-HCl pH 7.5, 45 °C
purified protein [3] = substrate: CCCCCC(=O)Oc1ccc([N+](=O)[O-])cc1; experiment: purified protein; type: biochemical, Altericroceibacterium indicum; settings: Tris-HCl pH 7.5, 45 °C
HPLC of SN38 formation [4] = substrate: CCc1c2c(nc3ccc(OC(=O)N4CCC(N5CCCCC5)CC4)cc13)-c1cc3c(c(=O)n1C2)COC(=O)[C@]3(O)CC; experiment: HPLC of SN38 formation; type: biochemical, Altericroceibacterium indicum; settings: pH 7.4; 37.0 °C
From the text: (§1) HPLC of SN38 formation on E93 | the kinetic parameters for the conversion of CPT11 and NPC were obtained from the HPLC

HPLC of SN38 formation [5] = substrate: CCc1c2c(nc3ccc(OC(=O)N4CCC(N)CC4)cc13)-c1cc3c(c(=O)n1C2)COC(=O)[C@]3(O)CC; experiment: HPLC of SN38 formation; type: biochemical, Altericroceibacterium indicum; settings: 5-200 uM substrate, 50 mM HEPES pH 7.4, 37 °C, 10 h
From the text: as §1

B1: E93 (Altericroceibacterium indicum; E428A) (protein)
chain: MARTRYGPVIGKVEQGALAFKGIPYGAPTSGSGRFMPPTPPQPWSTPLRAFDYGPTAPQSDPQDALESGAADARESEDCLTLNVWTPSLNDQRKRPVMVWLHGGGLWRLSAAGDYQAGTHLAAHSDVVMVSPNHRLNVLAHAYLDEYDPAFAGSSSAGMLDLVLALKWVRDNIEEFGGDPDNVTIFGQSGGGQKVSFLMAMPAAAGLFHKAIIQSGPAPLALEKPYARELSARLLTLLDIPKNRVRDIQNVPLDAIMRAYYQIFEELGGFGVMGVIQDFAPVVDDVALPQHPFWNGASPLSRDVPLMIGCTRTEMTEYFLASNPGAAKRDFAAVTAQLEPVFGMQAPAVVAHYRATHPTASPWEVDALIRSDWPTRLFTQRIADEQVKLGGAPVWMYRMDWQTTARDGLLMSPHAIDIPFVLDTVGTAPVEPGQLAEQQRMMQQMNNAWVSFARNGNPQNKYIPPWQPYNSTSRPTMIFNLHSHMANDPDGSDLAFLKKDLANLEVVAGGVTH
Purified protein [1]
  Km: 85.07 ± 9.4 µM
  kcat: 23.80 ± 2.34 ×10^-3 min^-1

B2: E93 (Altericroceibacterium indicum; Y318A) (protein)
chain: B1 chain with Y318A, A428E
Purified protein [1]
  Km: 55.47 ± 5.17 µM
  kcat: 40.87 ± 3.07 ×10^-3 min^-1

B3: E93 (Altericroceibacterium indicum) (protein)
chain: B1 chain with A428E
notes: recombinant in E. coli BL21 (DE3), N-terminal His6-SUMO tag (pSMT3), Ni-NTA purified; 57 kDa; 510 residues modelled; catalytic triad S189, E314, H414
Purified protein [2]; 0.02-3.50 mM substrate
  Km: 210 ± 20 µM
Purified protein [3]
  Km: 180 ± 11 µM
HPLC of SN38 formation [4]
  Km: 70.17 ± 7.07 µM
HPLC of SN38 formation [5]
  Km: 75.66 ± 6.03 µM
  kcat: 35.40 ± 1.70 ×10^-3 min^-1

B4: E93 (Altericroceibacterium indicum; T375A) (protein)
chain: B1 chain with T375A, A428E
notes: as for B3
Purified protein [3]
  Km: 130 ± 10 µM

B5: E93 (Altericroceibacterium indicum; M273A) (protein)
chain: B1 chain with M273A, A428E
notes: as for B3
Purified protein [3]
  Km: 390 ± 25 µM

B6: E93 (Altericroceibacterium indicum; T375I) (protein)
chain: B1 chain with T375I, A428E
notes: as for B3
Purified protein [2]
  Km: 100 ± 10 µM
Purified protein [3]
  Km: 110 ± 10 µM

B7: E93 (Altericroceibacterium indicum; Q193A) (protein)
chain: B1 chain with Q193A, A428E
notes: as for B3
Purified protein [3]
  Km: 100 ± 10 µM

B8: E93 (Altericroceibacterium indicum; W107A) (protein)
chain: B1 chain with W107A, A428E
notes: as for B3
Purified protein [3]
  Km: 210 ± 18 µM
